Reference: the DeepSol protein solubility set

Assay: soluble on expression in E. coli; label from the status in PepcDB or PDB records

Row | Sequence | soluble on expression in E. coli
1 | MKKNLLAIALGSVIALTAAPYSLAANDSTIQSSADYSQLVTKRQVVDQLLNDAVEAFKSPARISHAGFTAKMPSNMEIVTDRLLEAYQLEPYRTDLLISAANAQIYNKNVDRAIELFEQALAVAPDDVDLHAYLAVWQRFKGNQAESDQHMATLAKLNAGKAADINRIFDTVDRVLATPLKEKADKGKLDNKGAIVTLGYALNPDGSMHQILVERLETTLAMAKANPDAIIILTGGVPKNHKTEGKLMADWLIGKGVSKDRIIEENYATSTVGNALFSSYALARHNIKHATIISSASHVRRGQTLFEIASWQTGPQGITFDTVSYPDKPLKDLAKASESELLGIYRDALRTYGMWSYRSYPLESRLEHHHHHH | soluble
2 | MCTQDEECSAPGGDKGKEKEEHTVVPRGKEEKEKKPGTKPSPISPAFKGTPKERPNCGKTKNETSGKKLRSNDVSPDVKDRLQLSEHGPSKTCIKDFQWLEDFITKMPCFHGFIGREDLMSVLKNVGDFLIRTSVQPNKHEVEKMKKNQADVKVLGNLSREKCAKKEKEKEEKLAGMGDVGRREFVISVYCKDKEKPATDKPQYTPIRNLVIKRDNGMVHVEPLRKFKTLTEFFGYYQKNSGICKETDFQLITPIPLSNWEFIHEDIALQQKKLGEGAFGEVRIGKMKLKSTKKTVEVAVKMLRNAEVVIREQVGELLHEARVMRMMDHKNVLRSYGIAVLKEPLYLMTEMCACGALREYLRENQETVTLAEKLFFVVGSSRGVQYLHSQKTIHRDLAVRNILLSEDRTPKISDFGLAKISERYEMKEQCKIPVRYLAPETLESFIFTTKTDVFSFGCVIWEIYENGNQPHDGKNAQTIRNLTKKNQFLKLTNSAPSELRKLIEERVFTSDPENRCSMTTIVQCAEKIEKPPVGMK | not soluble
3 | MGSDKIHHHHHHMNARVNLNGLGTLHPMTSTRIATGTSGLDTILRGGLPSNRLYLLEGQPGSGKTTLALQFLLEGAAKGESCLYITLSETLDELQEVAQSHGWSLDALHIFELASAEAFLGDGRQQSILHPWELELDGTVKLIQAEVDRVKPQRVVFDSLSELRLLAQDSLRYRRQVLALKQFFAPRNITVLLVDDLTGTSEGRDSHLHSLCHGVVSLERLTLDFGAARRRMQVQKLRGVDFIAGYHDLSILRGGLRIYPRLIASDHHVTFIGDAVSSGVQEVDDLLHGGPLRGTSTLLTGPAGSGKTNLALQYVAAACARGEHCCIFEFDERTGTLLARAESLGLDLRRHLESGLLELRQMDPAELSPGEFAWQVRASVEQRNCRLLVIDSLNGYLSSMPQEKQLMLQMHELLSYLNQSGVTTFLINPQHGLVGTMSTGNLNISYMADTVILFRFFEAQGRIRKALSVIKNRSGAHEDAIRELRIGNSGIRLSAPLNDFHGVLTGTPHFIGDEAPLLGNDLARR | not soluble
4 | MGSDKIHHHHHHMAVRMLDIARRFNMLSERIRRESVELGIPAIDPEDGLILSSAAFYVGGGTGSYVDAGAGIGYSTIWIAYGAYHRCTDITCKIVAIEYDVELASILSRNLREVEAMFRGRIEFEVVSGDALDYFSRLEEKGREVFDMAFVDIEKGDYPEALERLENLLTAGGVAAFYNAFQPPPPPLFFDMVSKRPWKPVVLPTPAGLLLAVKTAG | not soluble
5 | GHMNVAKREFIRGMMAHYRASLPPPEHSVVIHELQKRVLDIGMLAVNKAHVELFGSHVSGFCTPHSDADISLTYRNFSPWLQGMERVDEQNNKRMTRFGKEASAMGMEDVRYIRARIPVVQFTDGVTGIHCDVSIGNIGGVENSKILCAIRQVFPDFYGAYIHLVKAWGKAREVIAPERSTFNSFTVTTMALMVLQELGLLPVFSKPTGEFGELTVADAEMLLQEFKLPPIYDSLHDDDEKLGEAVFFCLQRFAEYYAKYDFSAGTVSLIHPRRHRTVYERVVRRHLELLGSRKRLEWEKHIAEHKEDGPLDENDFSASMQNETTQRPSNSPYVVEDFVNYVNCGRRVQASRVRHIQQEFNRLREMLIDKESELKFDEVFRESDTVP | soluble
6 | MAAFAVDPQAPTLGSEPMMLGSPTSPKTGANAQFLPGFLMGDLPAPVTPQPRSISGPSVGVMEMRSPLLAGGSPPQPVVPAHKDKSGAPPVRSIYDDISSPGLGSTPLTSRRQANISLLQSPLVGATPPVPGQSMFSPANIGQPRKTTLSPAQLDPFYTQGDSLTSEDHLDDTWVTVFGFPQASASYILLQFAQYGNILKHVMSNTGNWMHIRYQSKLQARKALSKDGRIFGESIMIGVKPCIDKNVMENSDRGVLSSPSLAFTTPIRTLGTPTQSGSTPRVSTMRPLATAYKASTSDYQVISDRQTPKKDESLVSRAMEYMFGW | soluble
7 | MGSDKIHHHHHHMYRILVINPGSSSTKVAVFEDEKKIAEKNVSHSVEELKKFKRSMDQEPLRRKAVEDFIDEVGYRIEDFSAIAARGGVLEPVPGGTYVVNEYMVDYLINRSPVDHVSNLAAVIGYKLGKPHGIPCFVVDPVSVDEMCDEARFSGIPEIERKSYSHALNIKAVLRKVSREMGKTPEEVKIVVAHLGSGISVCACKNGKIIDVNNANDEGPFSIERTGELPVGDVVKTAYSSKHSAAELKEEFTRKGGLLAYLGTKNLKKALDSMETSRKAKLVVEAMAYQIAKEIGGMCAVLGEKPDAIVITGGMAHEIRFVRMITDYIEKFGKVEVIPGELEMEALALGVLRVLRGEEKAMDYRSVVE | not soluble
8 | MRFPELEELKNRRTLKWTRFPEDVLPLWVAESDFGTCPQLKEAMADAVEREVFGYPPDATGLNDALTGFYERRYGFGPNPESVFAIPDVVRGLKLAIEHFTKPGSAIIVPLPAYPPFIELPKVTGRQAIYIDAHEYDLKEIEKAFADGAGSLLFCNPHNPLGTVFSEEYIRELTDIAAKYDARIIVDEIHAPLVYEGTHVVAAGVSENAANTCITITATSKAWNTAGLKCAQIFFSNEADVKAWKNLSDITRDGVSILGLIAAETVYNEGEEFLDESIQILKDNRDFAAAELEKLGVKVYAPDSTYLMWLDFAGTKIEEAPSKILREEGKVMLNDGAAFGGFTTCARLNFACSRETLEEGLRRIASVL | not soluble
9 | MAHHHHHHMSEQILFDNFPLTFLNKDASEDYEDKNEKTYREKIKNIIEDLKSLRIEINEKYSIRSMLEEKLTLLQKEEQTKENNMKYIMNFSEHNIYEREVLNYQKNIAHLKKQIQTSNSKIKLLLEKEFKVRKQLQINYMNLYDILNERIEYIVENYVKHRKCSCAIYAYKQEKKEE | not soluble
10 | MSSGVAAPQPSSCVPSRVSVLSMDFEDIYRFFQDPPPHYLSKELAVCYVLAVLRHEDSYGTELIQHLETHWPNYRLSDTVLYTALKFLEDEQIISGYWKKVEGRGRPRRMYQLAQANDDRSRDLAQLWERYLSSSAATDRQLIPVEAR | soluble
11 | MAHHHHHHMTSVIQRLRRIEVEGLENLRNLGGYHTNNSTKTTRWGVVYRSDQLFRVPADVAQMVLVDQLHIRHVYDLRANTEVSAKRYSLPHMQYTSLPIEMSNANRFLKEGENLKQVATAHRFMQEIYREFVRSYAPTMGLIIKGIIDSKASCDNAFLIHCTAGKDRTGWCCYVLLTLLDVMEEEKRSDYLLTNTFVGIPADAWDYDGAEGMGEEAMTALWTVFDEYLDAALDELNKMGGIYKYAKSHMGLTDEDIDELRELMLE | soluble
12 | MIFDGHSDTWADVTIRRLNGEKDVFRRIHLDNFKRANIEGAIFVIWIDPPYDKEPEKRVKQIISSIKDEIEDMKDVVNIVKKYSDIDKGISENKINILIGLEGLSHIGRNIDLLDYFYKEVGARHASLTWNEQNELATGCLGDENRGLTEIGKKAVNKMEKLGMIVDVSHLNEKSFWDLMSVASKPVIASHSNARSLCDAKRNLTDNQLKEISNTGGLVGINSFRGFTNSNPKKQDLIHLVDHIDYMVNLIGIEHVSFGFDFSDYLGKETIGSFTGNASVPSVDGLESTHTAQNIVVELENRGYKKKDIELISSGNFYRLFKDILK | not soluble
13 | NMAGMNDKASMNDKASMTVKINESLPQGNGKALGTVTVTETAYGLLFTPHLTGLAPGIHGFHLHEKPSCAPGMKDGKAVPALAAGGHLDPNKTGVHLGPYNDKGHLGDLPGLVVNADGTATYPVLAPRLKSLSEVKQHALMIHAGGDNYSDHPMPLGGGGARMACGVIE | soluble
14 | SYYHHHHHHLESTSLYKKAGLKIKAVGAYSAKQPLEPMDITRREPGPNDVKIEIAYCGVCHSDLHQVRSEWAGTVYPCVPGHEIVGRVVAVGDQVEKYAPGDLVGVGCIVDSCKHCEECEDGLENYCDHMTGTYNSPTPDEPGHTLGGYSQQIVVHERYVLRIRHPQEQLAAVAPLLCAGITTYSPLRHWQAGPGKKVGVVGIGGLGHMGIKLAHAMGAHVVAFTTSEAKREAAKALGADEVVNSRNADEMAAHLKSFDFILNTVAAPHNLDDFTTLLKRDGTMTLVGAPATPHKSPEVFNLIMKRRAIAGSMIGGIPETQEMLDFCAEHGIVADIEMIRADQINEAYERMLRGDVKYRFVIDNRTLTD | soluble
15 | MGSDKIHHHHHHMISRTIQQLEDALGQQLFYRNTRAITPTESGKLFFEYAKRITEQFDEAQKALQDKTIEPSGLVRINAPVFFGQRHIAPWLAGLSERYPRLLIELIQTDEFIDPLRESTDLIFRIGALTDSSFHARIFGTQKYHLAASPQYVAKYGTLDHPTELNQHKCLVYKGFEGPNRWLVRKPNEEWVHYPITPLLSSNNAESLMTAALHSMGIVLFPDWLIGEALKKGDLIKLLPEYEVAIKSPPQHIAAIYPNVRHPPLNIRAVIDYFAEIYGDTPYWQN | not soluble
16 | MAATCSWKTCEETEQNTFIVKFSNGNVKNAEELDFTVFKHSNASNPRKKNRRIVVADSDRLPYVGSNFGSGSLQSNNMCKYFVGVLDKQTMQMKVHSAQLFNMLPVIPGEATEAESENQPSTFRDKVDALIEAFGTNKQKRALSSRRLNAVGNETLHQAVAQAASNIIDQKGVEALRNEVIETEAQSDAALFLPPCNANADKLEDVYPFDQLLTPNEFESLKEVGAKYATLSSEDLQKMRDNHCPQTVLKHLETLSKDEADRDRQCRCAWYLSFVIRASLQKRISFKFGSDDGCPRIIINKVLKNFTVESFHNGSLRNTVSMSMRMKMASYCLALLLHMGGQTANLTLLHRDMSISENKMLEVAKAMGLTLSRQNALGKEGGLIEDEHRMVSLVLPLVHYDRRTERKKRKRMN | soluble
17 | MPSMSPIDKSWSTCPYGFLDGTHQELRRIFHLWRCKKYRSQFTEEKKATYEEKLAASELFKDKKALYPSSVSQPFKGDYVEITKNPKYQKLNSLVEDKVLLADVVSKINRANGKGTPRIFLLTKKCLVLADQKTGQVKASVPLPDLSSVFVSTQNDGFFALKLREGATSAAKGDYLLSSDRLIEIITKLYCTGAASAERNQIKIDISDEFLVQFKQDKVCVKFIQGTPKNSNSVSCKRKNNRLLEVSVPSP | soluble
18 | MSLNYSDPVTFEILGVVANYGQEGCFMLAQLPPALQSLHLPLRLKLWDGNHFDLGPSPQVTILVKEPQLISQLTHPSMDQLGTAFVEGKLELEGDIGEAIRVCDELSEALLADEDETPPPRVSHDKTTDAKAISYHYDVSNAFYQLWLDQDMAYSCAYFREPDNTLDQAQQDKFDHLCRKLRLDAGDYLLDVGCGWGGLARFAAREYGAKVFGITLSKEQLKLGRKRVQAEGLADKVDLQILDYRDLPQDGRFDKVVSVGMFEHVGHANLALYCQKLFGAVREGGLVMNHGITAKHVDGRPVGRGAGEFIDRYVFPHGELPHLSMISASICEAGLEVVDVESLRLHYAKTLHHWSENLENQLHKAAALVPEKTLRIWRLYLAGCAYAFQKGWINLHQILAVKPYADGHHDLPWTREDLYREGHHHHHH | soluble
